This note sets out measurements from publication PMC9132474 (Science Advances, 2022).

This data set concerns the molecule itself. The data set can be described thus: cryo-EM structure.

B1: human sodium-proton exchanger 3 (NHE3/SLC9A3) (natural protein, UniProt P48764 26-834, looked up)
chain: GGVEVEPGGAHGESGGFQVVTFEWAHVQDPYVIALWILVASLAKIGFHLSHKVTSVVPESALLIVLGLVLGGIVWAADHIASFTLTPTVFFFYLLPPIVLDAGYFMPNRLFFGNLGTILLYAVVGTVWNAATTGLSLYGVFLSGLMGDLQIGLLDFLLFGSLMAAVDPVAVLAVFEEVHVNEVLFIIVFGESLLNDAVTVVLYNVFESFVALGGDNVTGVDCVKGIVSFFVVSLGGTLVGVVFAFLLSLVTRFTKHVRIIEPGFVFIISYLSYLTSEMLSLSAILAITFCGICCQKYVKANISEQSATTVRYTMKMLASSAETIIFMFLGISAVNPFIWTWNTAFVLLTLVFISVYRAIGVVLQTWLLNRYRMVQLEPIDQVVLSYGGLRGAVAFALVVLLDGDKVKEKNLFVSTTIIVVFFTVIFQGLTIKPLVQWLKVKRSEHREPRLNEKLHGRAFDHILSAIEDISGQIGHNYLRDKWSHFDRKFLSRVLMRRSAQKSRDRILNVFHELNLKDAISYVAEGERRGSLAFIRSPSTDNVVNVDFTPRSSTVEASVSYLLRENVSAVCLDMQSLEQRRRSIRDAEDMVTHHTLQQYLYKPRQEYKHLYSRHELTPTEDEKQDREIFHRTMRKRLESFKSTKLGLNQNKKAAKLYKRERAQKRRNSSIPNGKLPMESPAQNFTIKEKDLELSDTEEPPNYDEEMSGGIEFLASVTKDTASDSPAGIDNPVFSPDEALDRSLLARLPPWLSPGETVVPSQRARTQIPYSPGTFCRLMPFRLSSKSVDSFLQADGPEERPPAALPESTHM
As a reminder, the stoichiometry N is a count of units in the complex or per binding partner. For B1, the “stoichiometry N” value turned out to be 2.
